Experimental findings from patent publication US11773160 (ANAVEON, dated 2023) are described below.

Assay [1] has as its target T1, Recombinant human IL-2 (human, UniProt P60568 21-153).
T1 construct: also called hIL-2; recombinant IL-2 (Acro Biosystems, IL2-H4113)
As to the kind of experiment: Octet BLI, antibody immobilised on amine reactive sensors, IL-2 in solution. As for the experimental part: (§1) Antibody A, B or C were immobilized on amine reactive (2nd Generation) sensors (ForteBio, 18-5092). Association (600s) and dissociation (900s) of a dilution series of recombinant IL-2 (Acro Biosystems, IL2-H4113) were measured on the antibody-coated biosensors on an Octet-System (Octet RED, ForteBio). K_D values were obtained by fitting the kinetics data with the ForteBio Data Analysis Software (8.2).

The target of assay [2] is T1, Recombinant human IL-2. As to the kind of experiment: Octet BLI, antibody immobilised on amine reactive sensors, IL-2 in solution; Octet, free antibody B against recombinant hIL-2: weak binding, KD 269.8 nM. The procedure:
as §1
A general note: In BLI a coated tip is dipped into the sample, and binding shifts an interference pattern.

The target in assay [3] is T1, Recombinant human IL-2. The assay is described as follows: ELISA, recombinant human IL-2 coated, antibody titrated, anti-human IgG-Peroxidase. The procedure: Recombinant human IL-2 was coated on Maxisorp ELISA plates (Invitrogen, 44-2404-21) at 5 µg/ml, 4° C. over night. After 2 hours blocking, antibodies A, B and C were incubated in a serial dilution starting from 10 µg/ml in assay buffer. The antibodies were detected with anti-human IgG-Peroxidase (Sigma, A0170). After addition and blockade of the […] substrate, absorption was read ($A450$-$A570$ at plate reader, Spectramax iD3). $EC50$ values were obtained by plotting Absorbance vs. log(Concentration).
For orientation: In an ELISA, binding on a coated surface is turned into a signal by an enzyme label.

T1 sequence (P60568 21-153 limits assumed): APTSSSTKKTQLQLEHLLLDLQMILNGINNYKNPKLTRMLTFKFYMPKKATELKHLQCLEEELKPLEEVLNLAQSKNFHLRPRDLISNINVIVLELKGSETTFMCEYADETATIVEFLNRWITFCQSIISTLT

B1: Antibody C (antibody, human IgG1, kappa, V domains shown)
VH: EVQLVQSGAEVKKPGESLKISCKGSGYSFTNFYIHWVRQAPGQRLEWMGSIYPNYGDTAYNQKFKDRFVFSLDTSVSTAYLQISSLKAEDTAVYYCARGYSYAMDYWGQGTTVTVSS
VL: DIQMTQSPSSVSASVGDRVTITCSASQGISGDLNWYQQKPGKAPKLLIYHTSSLHSGVPSRFSGSGSGTDFTLTISSLQPEDFATYYCQYYSKDLLTFGGGTKLEIKR
notes: Control antibody, full-length human IgG1 kappa
For B1, the equilibrium dissociation constant (Kd) with Recombinant human IL-2 [1] was more than 1000 nM.

B2: Antibody B (antibody, human IgG1, kappa, V domains shown)
VH: QVQLVESGGGVVQPGRSLRLSCAASGYTFSSYLIEWVRQAPGKGLEWVAVINPGSGGTNYADSVKGRFTISADKSKNTAYLQMNSLRAEDTAVYYCARWRGDGYYAYFDVWGQGTTVTVSS
VL: EIVLTQSPATLSVSPGERATLSCRASQSVSYDGDSYMNWYQQKPGQAPRLLIYAASNLASGIPARFSGSGSGTEFTLTISSLQSEDAAVYYCQQSNEDPYTFGGGTKVEIKR
notes: Full-length human IgG1 kappa
In the case of B2, the Kd with Recombinant human IL-2 [2] stood at 270 nM.

B3: Antibody A (antibody, human IgG1, kappa, N297A, V domains shown)
VH: EVQLVQSGAEVKKPGESLKISCKGSGYAFTNYLIEWVRQMPGKGLEWMGVINPGSGGTNYNEKFKGQVTISADKSISTAYLQWSSLKASDTAMYYCARWRGEGYYAYFDVWGQGTTVTVSS
VL: AIRLTQSPSSFSASTGDRVTITCKASQSVDYQGDSYMNWYQQKPGKAPKLLIYAASNLESGVPSRFSGSGSGTDFTLTISSLQSEDFATYYCQQSNEDPYTFGGGTKVEIKR
notes: Humanized full-length human IgG1 kappa; The printed heavy chain carries the N297A Fc
For the molecule B3, in the assay with Recombinant human IL-2 [1], the Kd amounted to 2.1 nM. Besides, the EC50 in the assay with Recombinant human IL-2 [3] was determined as 0.37 nM.

One may read the Kd as the equilibrium constant for the complex coming apart. Usually EC50 stands for the concentration needed to bring the measured effect to its halfway point.
